Non-standard residues stand in square brackets, D forms with d. No end group written: not given here. Aib = CC(C)(N)C(=O)O
Target: botulinum neurotoxin serotype A light chain (Clostridium botulinum, UniProt P0DPI1 1-420)
Assay: HPLC-based protease inhibition assay (Dixon plots)
Details: both partners purified

botulinum neurotoxin serotype A light chain, sequence (P0DPI1 1-420): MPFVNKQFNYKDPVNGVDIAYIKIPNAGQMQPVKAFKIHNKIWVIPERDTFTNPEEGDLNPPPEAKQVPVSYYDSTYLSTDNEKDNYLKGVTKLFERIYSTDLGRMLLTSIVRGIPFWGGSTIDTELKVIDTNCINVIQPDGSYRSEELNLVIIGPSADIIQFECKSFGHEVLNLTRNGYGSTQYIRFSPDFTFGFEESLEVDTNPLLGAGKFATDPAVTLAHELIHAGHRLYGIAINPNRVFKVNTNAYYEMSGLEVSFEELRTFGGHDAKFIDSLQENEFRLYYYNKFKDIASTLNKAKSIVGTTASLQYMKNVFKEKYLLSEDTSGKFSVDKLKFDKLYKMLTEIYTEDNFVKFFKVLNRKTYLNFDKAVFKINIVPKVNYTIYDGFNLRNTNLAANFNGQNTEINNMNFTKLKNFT

Row | Binder | Ki
1 | RRF[Aib]AML-NH2 [JTH-NB72-39] | 0.638 µM
2 | RRW[Aib]AML-NH2 (not fully specified) [JTH-NB72-38] | 0.991 µM
